# Assay results: patent US20140206609A1 (Sanofi, published 2014)
# Like-named read-outs stand apart in the source and are kept apart here. *1 amine or outer side, *2 acyl side, *3 side chain or, on linkers, in order; H or OH if unused. Where no end group is shown, it is not given here. Side-chain parts run from the residue outwards. [ ]: non-standard residue; d: D form. The star is where a group is joined. γGlu = O=C(O)[C@H](CCC(=O)[*:2])N[*:1]; Palmitoyl = CCCCCCCCCCCCCCCC(=O)*; Nle = CCCC[C@H](N)C(=O)O; Aib = CC(C)(N)C(=O)O
# T1: human GIP receptor (human, UniProt P48546 22-466)
# T1 sequence (looked up): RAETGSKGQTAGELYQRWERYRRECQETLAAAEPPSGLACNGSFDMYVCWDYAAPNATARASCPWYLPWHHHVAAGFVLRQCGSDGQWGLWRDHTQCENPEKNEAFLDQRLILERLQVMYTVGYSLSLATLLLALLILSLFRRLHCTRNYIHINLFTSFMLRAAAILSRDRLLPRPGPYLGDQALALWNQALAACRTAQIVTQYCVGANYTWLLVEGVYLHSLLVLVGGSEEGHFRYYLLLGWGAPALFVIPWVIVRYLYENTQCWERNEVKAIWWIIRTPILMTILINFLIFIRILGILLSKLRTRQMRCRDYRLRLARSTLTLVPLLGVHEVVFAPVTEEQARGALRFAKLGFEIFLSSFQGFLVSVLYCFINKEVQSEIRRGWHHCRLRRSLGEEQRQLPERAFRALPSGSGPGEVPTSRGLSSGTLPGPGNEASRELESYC
# What was measured:
# Assay in all cases: cell-based or functional assay
# human GIP receptor [1] = target: T1, human GIP receptor
# human GLP-1 receptor [2] = target: T2, human GLP-1 receptor (human, UniProt P43220 24-463)
# human glucagon receptor = human glucagon receptor (human, UniProt P47871 26-477)
# human glucagon receptor, sequence (P47871 26-477): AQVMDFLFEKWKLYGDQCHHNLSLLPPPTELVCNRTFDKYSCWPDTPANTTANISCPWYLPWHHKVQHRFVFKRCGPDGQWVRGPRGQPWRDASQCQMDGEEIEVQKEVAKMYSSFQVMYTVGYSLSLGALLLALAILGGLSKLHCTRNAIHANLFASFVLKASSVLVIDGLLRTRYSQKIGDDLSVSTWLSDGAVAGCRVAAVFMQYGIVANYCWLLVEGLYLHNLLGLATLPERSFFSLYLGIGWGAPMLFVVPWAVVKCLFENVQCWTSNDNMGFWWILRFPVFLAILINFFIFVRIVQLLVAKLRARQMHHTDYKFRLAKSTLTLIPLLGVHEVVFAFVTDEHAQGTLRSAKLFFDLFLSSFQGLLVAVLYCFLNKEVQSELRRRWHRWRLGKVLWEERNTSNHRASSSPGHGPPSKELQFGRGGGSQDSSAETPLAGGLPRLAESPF
# human GIP receptor [3] = target: T1, human GIP receptor; remark: listed apart in the source
# human GLP-1 receptor [4] = target: T2, human GLP-1 receptor; remark: listed apart in the source
Binder,EC50 hGIP R [pM] (human GIP receptor [1]),EC50 hGLP-1 R [pM] (human GLP-1 receptor [2]),EC50 hGLUC R [pM] (human glucagon receptor),EC50 hGIP R [pM] (human GIP receptor [3]),EC50 hGLP-1 R [pM] (human GLP-1 receptor [4])
Y[Aib]QGTFTSDLSIQK([γGlu-Palmitoyl])ESRAAQDFIEWLKAGGPSSGAPPPS-NH2 (N-terminus assumed; SMILES CCCCCCCCCCCCCCCC(=O)N[C@@H](CCC(=O)NCCCC[C@H](NC(=O)[C@H](CCC(N)=O)NC(=O)[C@@H](NC(=O)[C@H](CO)NC(=O)[C@H](CC(C)C)NC(=O)[C@H](CC(=O)O)NC(=O)[C@H](CO)NC(=O)[C@@H](NC(=O)[C@H](Cc1ccccc1)NC(=O)[C@@H](NC(=O)CNC(=O)[C@H](CCC(N)=O)NC(=O)C(C)(C)NC(=O)[C@@H](N)Cc1ccc(O)cc1)[C@@H](C)O)[C@@H](C)O)[C@@H](C)CC)C(=O)N[C@@H](CCC(=O)O)C(=O)N[C@@H](CO)C(=O)N[C@@H](CCCNC(=N)N)C(=O)N[C@@H](C)C(=O)N[C@@H](C)C(=O)N[C@@H](CCC(N)=O)C(=O)N[C@@H](CC(=O)O)C(=O)N[C@@H](Cc1ccccc1)C(=O)N[C@H](C(=O)N[C@@H](CCC(=O)O)C(=O)N[C@@H](Cc1c[nH]c2ccccc12)C(=O)N[C@@H](CC(C)C)C(=O)N[C@@H](CCCCN)C(=O)N[C@@H](C)C(=O)NCC(=O)NCC(=O)N1CCC[C@H]1C(=O)N[C@@H](CO)C(=O)N[C@@H](CO)C(=O)NCC(=O)N[C@@H](C)C(=O)N1CCC[C@H]1C(=O)N1CCC[C@H]1C(=O)N1CCC[C@H]1C(=O)N[C@@H](CO)C(N)=O)[C@@H](C)CC)C(=O)O) [SEQ ID NO: 32],7.1,8.4,82.6,7.1,8.4
Y[Aib]QGTFTSDLSIQLESRAAQDFIEWLKAGGPSSGAPPPS-NH2 (N-terminus assumed; SMILES CC[C@H](C)[C@H](NC(=O)[C@H](Cc1ccccc1)NC(=O)[C@H](CC(=O)O)NC(=O)[C@H](CCC(N)=O)NC(=O)[C@H](C)NC(=O)[C@H](C)NC(=O)[C@H](CCCNC(=N)N)NC(=O)[C@H](CO)NC(=O)[C@H](CCC(=O)O)NC(=O)[C@H](CC(C)C)NC(=O)[C@H](CCC(N)=O)NC(=O)[C@@H](NC(=O)[C@H](CO)NC(=O)[C@H](CC(C)C)NC(=O)[C@H](CC(=O)O)NC(=O)[C@H](CO)NC(=O)[C@@H](NC(=O)[C@H](Cc1ccccc1)NC(=O)[C@@H](NC(=O)CNC(=O)[C@H](CCC(N)=O)NC(=O)C(C)(C)NC(=O)[C@@H](N)Cc1ccc(O)cc1)[C@@H](C)O)[C@@H](C)O)[C@@H](C)CC)C(=O)N[C@@H](CCC(=O)O)C(=O)N[C@@H](Cc1c[nH]c2ccccc12)C(=O)N[C@@H](CC(C)C)C(=O)N[C@@H](CCCCN)C(=O)N[C@@H](C)C(=O)NCC(=O)NCC(=O)N1CCC[C@H]1C(=O)N[C@@H](CO)C(=O)N[C@@H](CO)C(=O)NCC(=O)N[C@@H](C)C(=O)N1CCC[C@H]1C(=O)N1CCC[C@H]1C(=O)N1CCC[C@H]1C(=O)N[C@@H](CO)C(N)=O) [SEQ ID NO: 40],858,3.2,,,
Y[Aib]QGTFTSDLSIQK([γGlu-Palmitoyl])DSRAAQDFIEWLKAGGPSSGAPPPS-NH2 (N-terminus assumed; SMILES CCCCCCCCCCCCCCCC(=O)N[C@@H](CCC(=O)NCCCC[C@H](NC(=O)[C@H](CCC(N)=O)NC(=O)[C@@H](NC(=O)[C@H](CO)NC(=O)[C@H](CC(C)C)NC(=O)[C@H](CC(=O)O)NC(=O)[C@H](CO)NC(=O)[C@@H](NC(=O)[C@H](Cc1ccccc1)NC(=O)[C@@H](NC(=O)CNC(=O)[C@H](CCC(N)=O)NC(=O)C(C)(C)NC(=O)[C@@H](N)Cc1ccc(O)cc1)[C@@H](C)O)[C@@H](C)O)[C@@H](C)CC)C(=O)N[C@@H](CC(=O)O)C(=O)N[C@@H](CO)C(=O)N[C@@H](CCCNC(=N)N)C(=O)N[C@@H](C)C(=O)N[C@@H](C)C(=O)N[C@@H](CCC(N)=O)C(=O)N[C@@H](CC(=O)O)C(=O)N[C@@H](Cc1ccccc1)C(=O)N[C@H](C(=O)N[C@@H](CCC(=O)O)C(=O)N[C@@H](Cc1c[nH]c2ccccc12)C(=O)N[C@@H](CC(C)C)C(=O)N[C@@H](CCCCN)C(=O)N[C@@H](C)C(=O)NCC(=O)NCC(=O)N1CCC[C@H]1C(=O)N[C@@H](CO)C(=O)N[C@@H](CO)C(=O)NCC(=O)N[C@@H](C)C(=O)N1CCC[C@H]1C(=O)N1CCC[C@H]1C(=O)N1CCC[C@H]1C(=O)N[C@@H](CO)C(N)=O)[C@@H](C)CC)C(=O)O) [SEQ ID NO: 37],,,32,21.2,8.9
Y[Aib]EGTFTSDLSIQ[Nle]EKRAA[Aib]EFIEWLKNTGPSSGAPPPS-NH2 (N-terminus assumed; SMILES CCCC[C@H](NC(=O)[C@H](CCC(N)=O)NC(=O)[C@@H](NC(=O)[C@H](CO)NC(=O)[C@H](CC(C)C)NC(=O)[C@H](CC(=O)O)NC(=O)[C@H](CO)NC(=O)[C@@H](NC(=O)[C@H](Cc1ccccc1)NC(=O)[C@@H](NC(=O)CNC(=O)[C@H](CCC(=O)O)NC(=O)C(C)(C)NC(=O)[C@@H](N)Cc1ccc(O)cc1)[C@@H](C)O)[C@@H](C)O)[C@@H](C)CC)C(=O)N[C@@H](CCC(=O)O)C(=O)N[C@@H](CCCCN)C(=O)N[C@@H](CCCNC(=N)N)C(=O)N[C@@H](C)C(=O)N[C@@H](C)C(=O)NC(C)(C)C(=O)N[C@@H](CCC(=O)O)C(=O)N[C@@H](Cc1ccccc1)C(=O)N[C@H](C(=O)N[C@@H](CCC(=O)O)C(=O)N[C@@H](Cc1c[nH]c2ccccc12)C(=O)N[C@@H](CC(C)C)C(=O)N[C@@H](CCCCN)C(=O)N[C@@H](CC(N)=O)C(=O)N[C@H](C(=O)NCC(=O)N1CCC[C@H]1C(=O)N[C@@H](CO)C(=O)N[C@@H](CO)C(=O)NCC(=O)N[C@@H](C)C(=O)N1CCC[C@H]1C(=O)N1CCC[C@H]1C(=O)N1CCC[C@H]1C(=O)N[C@@H](CO)C(N)=O)[C@@H](C)O)[C@@H](C)CC) [SEQ ID NO: 41],449,11.2,,,
Y[Aib]EGTFTSDLSIQK([γGlu-Palmitoyl])EKRAA[Aib]EFIEWLKNTGPSSGAPPPS-NH2 (N-terminus assumed; SMILES CCCCCCCCCCCCCCCC(=O)N[C@@H](CCC(=O)NCCCC[C@H](NC(=O)[C@H](CCC(N)=O)NC(=O)[C@@H](NC(=O)[C@H](CO)NC(=O)[C@H](CC(C)C)NC(=O)[C@H](CC(=O)O)NC(=O)[C@H](CO)NC(=O)[C@@H](NC(=O)[C@H](Cc1ccccc1)NC(=O)[C@@H](NC(=O)CNC(=O)[C@H](CCC(=O)O)NC(=O)C(C)(C)NC(=O)[C@@H](N)Cc1ccc(O)cc1)[C@@H](C)O)[C@@H](C)O)[C@@H](C)CC)C(=O)N[C@@H](CCC(=O)O)C(=O)N[C@@H](CCCCN)C(=O)N[C@@H](CCCNC(=N)N)C(=O)N[C@@H](C)C(=O)N[C@@H](C)C(=O)NC(C)(C)C(=O)N[C@@H](CCC(=O)O)C(=O)N[C@@H](Cc1ccccc1)C(=O)N[C@H](C(=O)N[C@@H](CCC(=O)O)C(=O)N[C@@H](Cc1c[nH]c2ccccc12)C(=O)N[C@@H](CC(C)C)C(=O)N[C@@H](CCCCN)C(=O)N[C@@H](CC(N)=O)C(=O)N[C@H](C(=O)NCC(=O)N1CCC[C@H]1C(=O)N[C@@H](CO)C(=O)N[C@@H](CO)C(=O)NCC(=O)N[C@@H](C)C(=O)N1CCC[C@H]1C(=O)N1CCC[C@H]1C(=O)N1CCC[C@H]1C(=O)N[C@@H](CO)C(N)=O)[C@@H](C)O)[C@@H](C)CC)C(=O)O) [SEQ ID NO: 9],5.7,3.6,7710,5.7,3.6
